Experimental findings from EP1817050B1 are described below.

Test [1] has as its target IGF-II receptor (human, in membrane extracts of postmortem frontal lobe tissue) (human) (UniProt P11717). In words: saturation binding of [125I]-IGF-II to pooled human frontal lobe extracts, Braak 6; one-site fit/Scatchard.
Test [2] shares this target. In words: saturation binding of [125I]-IGF-II to pooled human frontal lobe extracts, Braak 2-3; one-site fit/Scatchard.
Test [3] shares this target. In words: saturation binding of [125I]-IGF-II to pooled human frontal lobe extracts, Braak 4-5; one-site fit/Scatchard.
The target is the same in test [4]. In words: saturation binding of [125I]-IGF-II to pooled human frontal lobe extracts, Braak 0-1; one-site fit/Scatchard.

Sequence of IGF-II receptor (human, in membrane extracts of postmortem frontal lobe tissue) (human) (P11717 41-2491 limits assumed): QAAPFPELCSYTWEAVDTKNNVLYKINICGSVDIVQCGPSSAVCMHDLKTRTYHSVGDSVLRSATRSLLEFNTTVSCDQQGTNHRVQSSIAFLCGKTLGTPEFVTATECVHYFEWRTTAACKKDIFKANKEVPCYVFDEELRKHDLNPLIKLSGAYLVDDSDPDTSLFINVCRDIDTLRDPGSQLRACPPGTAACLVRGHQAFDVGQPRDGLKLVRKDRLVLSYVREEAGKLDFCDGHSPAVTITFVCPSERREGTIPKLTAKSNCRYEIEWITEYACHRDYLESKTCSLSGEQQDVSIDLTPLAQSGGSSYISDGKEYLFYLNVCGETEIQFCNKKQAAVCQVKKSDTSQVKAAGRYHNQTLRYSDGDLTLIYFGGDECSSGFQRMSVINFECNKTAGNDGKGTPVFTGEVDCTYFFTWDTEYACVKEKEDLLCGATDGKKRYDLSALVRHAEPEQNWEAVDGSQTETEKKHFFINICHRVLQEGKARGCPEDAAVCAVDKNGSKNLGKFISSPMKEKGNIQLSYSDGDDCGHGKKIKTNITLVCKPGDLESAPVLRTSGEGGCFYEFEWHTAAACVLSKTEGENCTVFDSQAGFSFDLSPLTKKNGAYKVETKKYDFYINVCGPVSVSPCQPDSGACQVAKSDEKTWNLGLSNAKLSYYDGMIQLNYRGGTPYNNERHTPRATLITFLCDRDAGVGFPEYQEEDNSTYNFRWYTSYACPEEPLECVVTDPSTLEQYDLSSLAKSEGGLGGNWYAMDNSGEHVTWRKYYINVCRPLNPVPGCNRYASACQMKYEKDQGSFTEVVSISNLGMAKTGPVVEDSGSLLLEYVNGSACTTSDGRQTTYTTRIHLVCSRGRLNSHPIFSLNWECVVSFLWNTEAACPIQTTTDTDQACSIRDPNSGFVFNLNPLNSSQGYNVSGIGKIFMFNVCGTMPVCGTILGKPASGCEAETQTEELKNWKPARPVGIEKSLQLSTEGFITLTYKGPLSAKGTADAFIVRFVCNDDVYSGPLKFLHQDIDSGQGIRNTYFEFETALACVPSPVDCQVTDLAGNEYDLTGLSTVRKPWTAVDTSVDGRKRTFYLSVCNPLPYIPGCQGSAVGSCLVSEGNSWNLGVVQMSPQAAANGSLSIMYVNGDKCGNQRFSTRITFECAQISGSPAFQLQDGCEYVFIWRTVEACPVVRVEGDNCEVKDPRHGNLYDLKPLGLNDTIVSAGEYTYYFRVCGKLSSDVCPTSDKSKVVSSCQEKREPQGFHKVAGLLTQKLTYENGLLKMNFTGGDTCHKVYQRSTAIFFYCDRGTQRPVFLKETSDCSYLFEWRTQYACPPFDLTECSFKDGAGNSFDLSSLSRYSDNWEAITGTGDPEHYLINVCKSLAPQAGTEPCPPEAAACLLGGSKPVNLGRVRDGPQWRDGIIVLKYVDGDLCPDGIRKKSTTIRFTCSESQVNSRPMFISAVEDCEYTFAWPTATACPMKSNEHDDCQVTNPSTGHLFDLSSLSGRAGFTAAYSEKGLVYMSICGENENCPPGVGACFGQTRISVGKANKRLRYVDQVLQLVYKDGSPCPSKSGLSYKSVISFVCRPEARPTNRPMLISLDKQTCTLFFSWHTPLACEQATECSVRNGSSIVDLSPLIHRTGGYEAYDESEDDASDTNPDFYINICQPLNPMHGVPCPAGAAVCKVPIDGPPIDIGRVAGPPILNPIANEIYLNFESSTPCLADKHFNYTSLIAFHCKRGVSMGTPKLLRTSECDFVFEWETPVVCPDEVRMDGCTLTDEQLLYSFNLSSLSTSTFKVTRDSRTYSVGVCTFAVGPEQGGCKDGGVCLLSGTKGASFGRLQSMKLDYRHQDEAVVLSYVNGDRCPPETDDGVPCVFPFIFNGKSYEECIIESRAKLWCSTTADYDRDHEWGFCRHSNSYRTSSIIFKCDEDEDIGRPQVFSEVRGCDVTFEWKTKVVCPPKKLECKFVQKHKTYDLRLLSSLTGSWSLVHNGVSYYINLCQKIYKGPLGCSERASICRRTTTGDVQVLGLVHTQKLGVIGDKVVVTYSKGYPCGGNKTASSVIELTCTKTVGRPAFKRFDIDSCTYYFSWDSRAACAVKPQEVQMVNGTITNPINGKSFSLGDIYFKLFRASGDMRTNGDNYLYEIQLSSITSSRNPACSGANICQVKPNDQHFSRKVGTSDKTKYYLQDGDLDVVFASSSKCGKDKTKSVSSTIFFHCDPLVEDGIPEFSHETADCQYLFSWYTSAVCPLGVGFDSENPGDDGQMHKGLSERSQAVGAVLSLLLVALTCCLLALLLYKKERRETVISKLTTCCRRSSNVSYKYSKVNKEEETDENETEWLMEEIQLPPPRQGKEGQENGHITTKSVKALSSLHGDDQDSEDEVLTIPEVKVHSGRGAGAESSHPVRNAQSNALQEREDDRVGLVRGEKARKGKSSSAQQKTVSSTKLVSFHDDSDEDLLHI

Turning to [125I]-labeled IGF-II (ligand), the BMAX (fmol/mg protein) in test [1] was 4.71; in test [2] it was 12.5; in test [3] it was 8.14; in test [4], 16.8.
